Reference: patent US20240261333A1 (published 2024)

Tests used:
Test in all cases: co-IP, anti-FLAG, lysate of cells with N-FLAG B3GNT2; mass spectrometry
KRT4 = biological target: T1, KRT4 (human, UniProt P19013 1-520)
T1 construct: also called NP_002263.3

RPS3 = RPS3 (human, UniProt P23396 2-243)
HADHB = biological target: T2, HADHB (human, UniProt P55084 34-474)
T2 construct: also called NP_000174.1 (+3)
T2 sequence (looked up): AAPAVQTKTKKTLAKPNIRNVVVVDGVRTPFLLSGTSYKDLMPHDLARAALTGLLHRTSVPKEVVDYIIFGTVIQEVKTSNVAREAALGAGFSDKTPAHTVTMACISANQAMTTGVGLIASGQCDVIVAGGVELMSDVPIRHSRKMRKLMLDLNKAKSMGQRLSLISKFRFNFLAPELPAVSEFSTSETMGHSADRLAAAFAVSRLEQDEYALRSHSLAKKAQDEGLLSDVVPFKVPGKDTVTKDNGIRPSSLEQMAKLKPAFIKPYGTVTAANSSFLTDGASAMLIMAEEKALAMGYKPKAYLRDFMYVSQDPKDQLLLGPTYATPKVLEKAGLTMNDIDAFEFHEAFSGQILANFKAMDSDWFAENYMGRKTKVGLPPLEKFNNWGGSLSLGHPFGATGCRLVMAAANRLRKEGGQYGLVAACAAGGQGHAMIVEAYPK

RPL10 = RPL10 (human, UniProt P27635 2-214)
FAU = FAU (human, UniProt P62861 75-133)
SERBP1 = biological target: T3, SERBP1 (human, UniProt Q8NC51 2-408)
T3 construct: also called NP_001018077.1 (+1)
T3 sequence (looked up): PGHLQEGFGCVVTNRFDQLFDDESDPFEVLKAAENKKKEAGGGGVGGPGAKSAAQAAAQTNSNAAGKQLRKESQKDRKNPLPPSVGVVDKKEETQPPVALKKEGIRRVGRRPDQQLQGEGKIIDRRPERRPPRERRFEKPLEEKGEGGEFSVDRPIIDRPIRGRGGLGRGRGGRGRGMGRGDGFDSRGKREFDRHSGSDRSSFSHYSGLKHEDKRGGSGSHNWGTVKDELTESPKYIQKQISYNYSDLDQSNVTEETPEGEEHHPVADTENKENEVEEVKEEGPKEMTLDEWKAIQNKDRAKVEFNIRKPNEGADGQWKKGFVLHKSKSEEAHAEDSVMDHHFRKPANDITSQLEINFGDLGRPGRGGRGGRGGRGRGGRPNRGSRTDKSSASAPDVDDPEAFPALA

RBM39 = biological target: T4, RBM39 (human, UniProt Q14498-3 2-508, limits assumed)
T4 construct: also called NP_001310351.1 (+3)
T4 sequence (looked up): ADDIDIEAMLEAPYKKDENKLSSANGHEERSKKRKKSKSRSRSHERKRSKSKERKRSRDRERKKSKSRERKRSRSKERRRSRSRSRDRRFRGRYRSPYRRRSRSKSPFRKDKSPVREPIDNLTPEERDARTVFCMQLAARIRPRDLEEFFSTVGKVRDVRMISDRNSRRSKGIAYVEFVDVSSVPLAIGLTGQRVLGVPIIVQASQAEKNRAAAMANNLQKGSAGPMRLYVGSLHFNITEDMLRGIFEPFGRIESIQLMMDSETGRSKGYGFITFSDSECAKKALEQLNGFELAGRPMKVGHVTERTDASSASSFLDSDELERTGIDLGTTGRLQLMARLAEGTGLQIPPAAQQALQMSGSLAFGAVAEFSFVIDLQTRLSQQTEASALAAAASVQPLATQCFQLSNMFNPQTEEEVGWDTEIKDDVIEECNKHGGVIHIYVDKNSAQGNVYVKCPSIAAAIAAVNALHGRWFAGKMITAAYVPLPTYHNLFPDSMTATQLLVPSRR

T1 sequence (P19013 whole entry): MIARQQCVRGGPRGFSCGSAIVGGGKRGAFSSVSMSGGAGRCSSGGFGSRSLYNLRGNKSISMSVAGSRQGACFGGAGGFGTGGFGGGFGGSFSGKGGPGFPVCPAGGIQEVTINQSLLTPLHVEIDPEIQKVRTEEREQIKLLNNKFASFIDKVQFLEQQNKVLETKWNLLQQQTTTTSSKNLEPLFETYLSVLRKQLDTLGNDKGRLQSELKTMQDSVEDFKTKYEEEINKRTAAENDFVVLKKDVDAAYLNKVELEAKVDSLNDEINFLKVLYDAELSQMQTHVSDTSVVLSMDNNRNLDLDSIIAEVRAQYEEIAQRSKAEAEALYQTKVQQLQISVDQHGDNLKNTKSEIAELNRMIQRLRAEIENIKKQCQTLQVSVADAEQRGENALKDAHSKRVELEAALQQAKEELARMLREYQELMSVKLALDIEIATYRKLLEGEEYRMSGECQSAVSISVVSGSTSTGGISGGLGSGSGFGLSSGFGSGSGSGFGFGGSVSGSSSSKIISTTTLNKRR

- co-IP mass spectrometry count (KRT4): 22
- co-IP mass spectrometry count (RPS3): 10
- co-IP mass spectrometry count (HADHB): 0
- co-IP mass spectrometry count (RPL10): 4
- co-IP mass spectrometry count (FAU): 5
- co-IP mass spectrometry count (SERBP1): 0
- co-IP mass spectrometry count (RBM39): 4
B1: N-terminal FLAG tagged B3GNT2 (enzyme, human, UniProt Q9NY97 1-397, looked up)
chain: MSVGRRRIKLLGILMMANVFIYFIMEVSKSSSQEKNGKGEVIIPKEKFWKISTPPEAYWNREQEKLNRQYNPILSMLTNQTGEAGRLSNISHLNYCEPDLRVTSVVTGFNNLPDRFKDFLLYLRCRNYSLLIDQPDKCAKKPFLLLAIKSLTPHFARRQAIRESWGQESNAGNQTVVRVFLLGQTPPEDNHPDLSDMLKFESEKHQDILMWNYRDTFFNLSLKEVLFLRWVSTSCPDTEFVFKGDDDVFVNTHHILNYLNSLSKTKAKDLFIGDVIHNAGPHRDKKLKYYIPEVVYSGLYPPYAGGGGFLYSGHLALRLYHITDQVHLYPIDDVYTGMCLQKLGLVPEKHKGFRTFDIEEKNKNNICSYVDLMLVHSRKPQEMIDIWSQLQSAHLKC
notes: Overexpressed in cells and pulled down from the lysate with mouse anti-FLAG antibody; also called N-FLAG B3GNT2; N-term FLAG; not shown: N-terminal FLAG tag
